According to PMC3093407:

Columns and labels:
[1] = biological target: CFP-tagged human αA-crystallin wild-type (human) (UniProt P02489); test: FRET or BRET; acceptor photobleaching in living HeLa cells co-transfected for 48 h; CFP fusion as donor, YFP fusion as acceptor bleached at 514 nm; FRET efficiency from ten images per construct, three experiments; room temperature
[2] = biological target: CFP-tagged human αB-crystallin wild-type (human) (UniProt P02511); test: as above
Chain of UniProt P02511 (P02511 whole entry): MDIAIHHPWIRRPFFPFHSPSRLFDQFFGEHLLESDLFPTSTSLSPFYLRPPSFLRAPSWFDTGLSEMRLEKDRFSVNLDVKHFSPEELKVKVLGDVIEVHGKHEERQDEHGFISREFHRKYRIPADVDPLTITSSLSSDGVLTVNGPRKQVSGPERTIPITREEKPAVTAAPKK

FRET efficiency against αAwt/αAwt [1]	FRET efficiency against αBwt/αAwt [2]	Substance
30 % lower	–	YFP-tagged C-terminal truncated human αA-crystallin αA162 (from UniProt P02489 1-162) (domain or fragment)
30 % lower	–	YFP-tagged C-terminal truncated human αA-crystallin αA168 (from UniProt P02489 1-168) (domain or fragment)
50 % higher	2 fold	YFP-tagged C-terminal truncated human αA-crystallin αA172 (from UniProt P02489 1-172) (domain or fragment)
